# Results reported in article PMC2198845 (The Journal of Cell Biology, 2001).
# Biological target: the molecule itself
# Assay: cross-linking
protein,measurement,value
"endophilin NH2-terminal 125 amino acid fragment (domain or fragment, rat, UniProt O35179 1-125, looked up) MSVAGLKKQFHKATQKVSEKVGGAEGTKLDDDFKEMERKVDVTSRAVMEIMTKTIEYLQPNPASRAKLSMINTMSKIRGQEKGPGYPQAEALLAEAMLKFGRELGDDCNFGPALGEVGEAMRELS",stoichiometry N,2
